In US20010055591A1 (WISYS TECHNOLOGY FOUNDATION, published 2001):
Changes are numbered by the printed parent chain. Numbers in names are those of the source. Each block holds one binder with its values, some of them ahead of it.

How the values were obtained:
thrombin (free thrombin) [1] = biological target: T1, thrombin (free thrombin) (human, UniProt P00734 328-622); test: ratio of κ2 with heparin to κ2 without heparin
Experimental: (§1) Serine Protease Inhibition Assays. The rates of inhibition of the serine proteases thrombin, factor Xa and APC in the presence and absence of heparin were measured using discontinuous assays under pseudo-first order rate conditions as described previously (Phillips et al., 1994; Rezaie et al., 1995). Protein was diluted in TBS buffer containing 0.1 mg/ml BSA, 0.1% PEG 8000, and 0.01% azide to a final reaction volume of 50 μl. […] Substrates used were Spectrozyme TH (SpTH) for thrombin and trypsin, PCA (SpPCA) for APC, and FXa (SpFXa) for Factor Xa (American Diagnostica, Greenwich, Conn.). Absorbances were determined using a SpectraMax Plus plate reader (Molecular Devices, Sunnyvale, Calif.). Absorbance is directly related to residual protease activity. In assays containing heparin, 1 mg/ml Polybrene was added to the substrate to block further heparin binding during substrate development. For heparin template curve data, varying concentrations (0-1000 μg/ml) of unfractionated heparin were added and proteins were diluted in HNPN buffer. For remaining heparin assays, the resulting optimal heparin concentration (5 μg/ml) was used. […] TM was either purified rabbit TM (RTM) or recombinant 4-6 TM (provided by Dr. Alireza Rezaie). Second-order rate constants of thrombin inhibition were determined using the following equation: […]
(§2) Inhibition in the presence of heparin. Thrombin inhibition is accelerated (300- to 1000-fold) in the presence of heparin (Olson et al., 1992). […] Changes in heparin binding domains may alter the concentration of heparin required for the fastest rate of thrombin inhibition.

[2] = biological target: T2, thrombin bound to 4-6 TM (recombinant EGF repeats 4-6 of thrombomodulin) (human, UniProt P00734 328-622; P07204 363-483); test: ratio of κ2 with 4-6 TM to κ2 on free thrombin
Experimental: as §1, with “Protein” for “Serine Protease Inhibition Assays. The rates of inhibition of the serine proteases thrombin, factor Xa and APC in the presence and absence of heparin were measured using discontinuous assays under pseudo-first order rate conditions as described previously (Phillips et al., 1994; Rezaie et al., 1995). Protein”
(§3) Inhibition in the presence of TM.

trypsin = biological target: T3, trypsin; test: discontinuous trypsin inhibition assay, chromogenic substrate SpTH
T3 construct: The source of the trypsin is doubtful, so see recheck
Experimental: as §1
Trypsin inhibition assays were performed to examine the overall activity of each mutant protein.

thrombin (free thrombin) [3] = biological target: T1, thrombin (free thrombin); test: discontinuous thrombin inhibition assay, chromogenic substrate; no TM
Experimental: as §1, §3

Factor Xa = biological target: T4, Factor Xa (human, UniProt P00742 41-179; P00742 235-488, limits assumed); test: discontinuous Factor Xa inhibition assay, chromogenic substrate SpFXa
T4 construct: also called FXa
T4 sequence (P00742 41-179 limits assumed, form in doubt, chain 1 of 2): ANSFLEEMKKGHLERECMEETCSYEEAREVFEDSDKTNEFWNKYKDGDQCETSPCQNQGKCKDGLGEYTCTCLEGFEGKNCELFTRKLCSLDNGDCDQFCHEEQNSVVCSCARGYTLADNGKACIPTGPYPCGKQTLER
T4 sequence (P00742 235-488 limits assumed, form in doubt, chain 2 of 2): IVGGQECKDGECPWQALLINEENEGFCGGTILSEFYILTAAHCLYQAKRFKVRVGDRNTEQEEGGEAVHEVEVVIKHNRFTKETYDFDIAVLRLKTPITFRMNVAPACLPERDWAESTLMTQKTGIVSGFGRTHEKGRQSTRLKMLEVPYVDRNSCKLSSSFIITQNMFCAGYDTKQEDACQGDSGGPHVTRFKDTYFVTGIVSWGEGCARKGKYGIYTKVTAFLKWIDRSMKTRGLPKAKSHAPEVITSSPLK
Experimental: as §1

thrombin (free thrombin) [4] = biological target: T1, thrombin (free thrombin); test: discontinuous thrombin inhibition assay, chromogenic substrate; no heparin
Experimental: as §1, §2

thrombin (free thrombin) [5] = biological target: T1, thrombin (free thrombin); test: discontinuous thrombin inhibition assay, chromogenic substrate; with 5 µg/ml heparin
Experimental: as §1, §2

[6] = biological target: T2, thrombin bound to 4-6 TM (recombinant …); test: discontinuous thrombin inhibition assay, chromogenic substrate; thrombin with 4-6 TM
Experimental: as §1, §3

[7] = biological target: thrombin bound to rabbit thrombomodulin (RTM) (human; rabbit, UniProt P00734 328-622; Q8HZ48 21-576); test: ratio of κ2 with RTM to κ2 on free thrombin
Experimental: as §1

[8] = biological target: T2, thrombin bound to 4-6 TM (recombinant …); test: ratio of κ2 with 4-6 TM to κ2 on free thrombin; remark: listed apart in the source

Ratio (+/-) of κ2 with and without heparin (thrombin (free thrombin) [1]): 263 fold | second-order rate constant (κ2) of inhibition (trypsin): 10000 M⁻¹ s⁻¹ | second-order rate constant (κ2) of inhibition (thrombin (free thrombin) [3]): 2000 M⁻¹ s⁻¹ | second-order rate constant (κ2) of inhibition (Factor Xa): 260 M⁻¹ s⁻¹ | second-order rate constant (κ2) of inhibition (thrombin (free thrombin) [4]): 4800 M⁻¹ s⁻¹ | second-order rate constant (κ2) of inhibition (thrombin (free thrombin) [5]): 1.3e+06 M⁻¹ s⁻¹ | second-order rate constant (κ2) of inhibition [6]: 1200 M⁻¹ s⁻¹
B1: AT-P3R (antithrombin with the PCI reactive site loop and an arginine at P3) (other)
chain: HGSPVDICTAKPRDIPMNPMCIYRSPEKKATEDEGSEQKIPEATNRRVWELSKANSRFATTFYQHLADSKNDNDNIFLSPLSISTAFAMTKLGACNDTLQQLMEVFKFDTISEKTSDQIHFFFAKLNCRLYRKANKSSKLVSANRLFGDKSLTFNETYQDISELVYGAKLQPLDFKENAEQSRAAINKWVSNKTEGRITDVIPSEAINELTVLVLVNTIYFKGLWKSKFSPENTRKELFYKADGESCSASMMYQEGKFRYRRVAEGTQVLELPFKGDDITMVLILPKPEKSLAKVEKELTPEVLQEWLDELEEMMLVVHMPRFRIEDGFSLKEQLQDMGLVDLFSPEKSKLPGIVAEGRDDLYVSDAFHKAFLEVNEEGSEAAASTAVVIRFRSARPNRVTFKANRPFLVFIREVPLNTIIFMGRVANPCVK
notes: I derived them from P1′ = serine 394 of mature antithrombin
Ratio (+/-) of κ2 with and without 4-6 TM [2]: 0.6 fold

Ratio (+/-) of κ2 with and without heparin (thrombin (free thrombin) [1]): 34 fold | second-order rate constant (κ2) of inhibition (trypsin): 9500 M⁻¹ s⁻¹ | second-order rate constant (κ2) of inhibition (thrombin (free thrombin) [3]): 5500 M⁻¹ s⁻¹ | second-order rate constant (κ2) of inhibition (Factor Xa): 1000 M⁻¹ s⁻¹ | second-order rate constant (κ2) of inhibition (thrombin (free thrombin) [4]): 5300 M⁻¹ s⁻¹ | second-order rate constant (κ2) of inhibition (thrombin (free thrombin) [5]): 180000 M⁻¹ s⁻¹ | second-order rate constant (κ2) of inhibition [6]: 20000 M⁻¹ s⁻¹
B2: AT-pos (antithrombin H-helix mutant D309K, E310K, E312K, E313K) (other, Homo sapiens, UniProt P01008 33-464, looked up)
chain: B1 chain with D309K, E310K, E312K, E313K, R391A, F392G, A395L, R396N
notes: mature; The residue numbers appear to count on mature antithrombin; also called H-helix mutant Poly-K
Ratio to no TM (RTM) [7]: 90.7 fold | Ratio (+/-) of κ2 with and without 4-6 TM [2]: 3.7 fold | Ratio to no TM (4-6 TM) [8]: 3 fold

Ratio (+/-) of κ2 with and without heparin (thrombin (free thrombin) [1]): 210 fold | second-order rate constant (κ2) of inhibition (trypsin): 6100 M⁻¹ s⁻¹ | second-order rate constant (κ2) of inhibition (thrombin (free thrombin) [3]): 3400 M⁻¹ s⁻¹ | second-order rate constant (κ2) of inhibition (thrombin (free thrombin) [4]): 3000 M⁻¹ s⁻¹ | second-order rate constant (κ2) of inhibition (thrombin (free thrombin) [5]): 630000 M⁻¹ s⁻¹ | second-order rate constant (κ2) of inhibition [6]: 2500 M⁻¹ s⁻¹
B3: AT-rsl (antithrombin with the reactive site loop sequence of PCI) (other, Homo sapiens, UniProt P01008 33-464, looked up)
chain: B1 chain with R391T
notes: mature; I derived them from P1′ = serine 394 of mature antithrombin; also called AT-rs1; Reactive site loop mutant
Ratio (+/-) of κ2 with and without 4-6 TM [2]: 0.7 fold
